The chains are these.
B1: target 1 MT 5'PFS AAG 3'PFS CGG (mixed)
RNA 1: CACCCGUGCAAAAAUGCAGGGGUCUAAAACUGAGCGGAUAACCUCUCUAUGG
RNA 2: GGGAAUGGAUCCACAUCUACGAAUUCAAGCCAUAGAGAGGUUAUCCGCUCACGGAGAUCGGAAGAGCACACGU
B2: target 1 MT 5'PFS GUA 3'PFS UGC (mixed)
RNA 1: CACCCGUGCAAAAAUGCAGGGGUCUAAAACUGAGCGGAUAACCUCUCUAUGG
RNA 2: GGGAAUGGAUCCACAUCUACGAAUUCGUACCAUAGAGAGGUUAUCCGCUCAUGCAGAUCGGAAGAGCACACGU
B3: target 1 MT 5'PFS ACA 3'PFS UUC (mixed)
RNA 1: CACCCGUGCAAAAAUGCAGGGGUCUAAAACUGAGCGGAUAACCUCUCUAUGG
RNA 2: GGGAAUGGAUCCACAUCUACGAAUUCACACCAUAGAGAGGUUAUCCGCUCAUUCAGAUCGGAAGAGCACACGU
B4: target 1 A9U,U11A (mixed)
RNA 1: CACCCGUGCAAAAAUGCAGGGGUCUAAAACUGAGCGGAUAACCUCUCUAUGG
RNA 2: GGGAAUGGAUCCACAUCUACGAAUUCGUACCAUAGAGAGGAUUUCCGCUCACCGAGAUCGGAAGAGCACACGU
B5: target 1 MT 5'PFS CUU 3'PFS CUC (mixed)
RNA 1: CACCCGUGCAAAAAUGCAGGGGUCUAAAACUGAGCGGAUAACCUCUCUAUGG
RNA 2: GGGAAUGGAUCCACAUCUACGAAUUCCUUCCAUAGAGAGGUUAUCCGCUCACUCAGAUCGGAAGAGCACACGU
B6: target 1 MT 5'PFS GUA 3'PFS UGA (mixed)
RNA 1: CACCCGUGCAAAAAUGCAGGGGUCUAAAACUGAGCGGAUAACCUCUCUAUGG
RNA 2: GGGAAUGGAUCCACAUCUACGAAUUCGUACCAUAGAGAGGUUAUCCGCUCAUGAAGAUCGGAAGAGCACACGU
B7: target 1 MT 5'PFS GGC 3'PFS AAA (mixed)
RNA 1: CACCCGUGCAAAAAUGCAGGGGUCUAAAACUGAGCGGAUAACCUCUCUAUGG
RNA 2: GGGAAUGGAUCCACAUCUACGAAUUCGGCCCAUAGAGAGGUUAUCCGCUCAAAAAGAUCGGAAGAGCACACGU
B8: target 1 MT 5'PFS CUU 3'PFS CUA (mixed)
RNA 1: CACCCGUGCAAAAAUGCAGGGGUCUAAAACUGAGCGGAUAACCUCUCUAUGG
RNA 2: GGGAAUGGAUCCACAUCUACGAAUUCCUUCCAUAGAGAGGUUAUCCGCUCACUAAGAUCGGAAGAGCACACGU
B9: target 1 MT 5'PFS CCU 3'PFS ACG (mixed)
RNA 1: CACCCGUGCAAAAAUGCAGGGGUCUAAAACUGAGCGGAUAACCUCUCUAUGG
RNA 2: GGGAAUGGAUCCACAUCUACGAAUUCCCUCCAUAGAGAGGUUAUCCGCUCAACGAGAUCGGAAGAGCACACGU
B10: target 1 MT 5'PFS GCA 3'PFS UGC (mixed)
RNA 1: CACCCGUGCAAAAAUGCAGGGGUCUAAAACUGAGCGGAUAACCUCUCUAUGG
RNA 2: GGGAAUGGAUCCACAUCUACGAAUUCGCACCAUAGAGAGGUUAUCCGCUCAUGCAGAUCGGAAGAGCACACGU
B11: target 1 MT 5'PFS AUG 3'PFS CUC (mixed)
RNA 1: CACCCGUGCAAAAAUGCAGGGGUCUAAAACUGAGCGGAUAACCUCUCUAUGG
RNA 2: GGGAAUGGAUCCACAUCUACGAAUUCAUGCCAUAGAGAGGUUAUCCGCUCACUCAGAUCGGAAGAGCACACGU
B12: target 1 MT 5'PFS AGA 3'PFS AUA (mixed)
RNA 1: CACCCGUGCAAAAAUGCAGGGGUCUAAAACUGAGCGGAUAACCUCUCUAUGG
RNA 2: GGGAAUGGAUCCACAUCUACGAAUUCAGACCAUAGAGAGGUUAUCCGCUCAAUAAGAUCGGAAGAGCACACGU
B13: target 1 MT 5'PFS AGA 3'PFS AUC (mixed)
RNA 1: CACCCGUGCAAAAAUGCAGGGGUCUAAAACUGAGCGGAUAACCUCUCUAUGG
RNA 2: GGGAAUGGAUCCACAUCUACGAAUUCAGACCAUAGAGAGGUUAUCCGCUCAAUCAGAUCGGAAGAGCACACGU
B14: target 1 MT 5'PFS GUA 3'PFS UGG (mixed)
RNA 1: CACCCGUGCAAAAAUGCAGGGGUCUAAAACUGAGCGGAUAACCUCUCUAUGG
RNA 2: GGGAAUGGAUCCACAUCUACGAAUUCGUACCAUAGAGAGGUUAUCCGCUCAUGGAGAUCGGAAGAGCACACGU
B15: target 1 MT 5'PFS AAG 3'PFS UGU (mixed)
RNA 1: CACCCGUGCAAAAAUGCAGGGGUCUAAAACUGAGCGGAUAACCUCUCUAUGG
RNA 2: GGGAAUGGAUCCACAUCUACGAAUUCAAGCCAUAGAGAGGUUAUCCGCUCAUGUAGAUCGGAAGAGCACACGU
B16: target 1 MT 5'PFS AGG 3'PFS AGG (mixed)
RNA 1: CACCCGUGCAAAAAUGCAGGGGUCUAAAACUGAGCGGAUAACCUCUCUAUGG
RNA 2: GGGAAUGGAUCCACAUCUACGAAUUCAGGCCAUAGAGAGGUUAUCCGCUCAAGGAGAUCGGAAGAGCACACGU
B17: target 1 MT 5'PFS ACA 3'PFS UUU (mixed)
RNA 1: CACCCGUGCAAAAAUGCAGGGGUCUAAAACUGAGCGGAUAACCUCUCUAUGG
RNA 2: GGGAAUGGAUCCACAUCUACGAAUUCACACCAUAGAGAGGUUAUCCGCUCAUUUAGAUCGGAAGAGCACACGU
B18: target 1 MT 5'PFS GGC 3'PFS AAC (mixed)
RNA 1: CACCCGUGCAAAAAUGCAGGGGUCUAAAACUGAGCGGAUAACCUCUCUAUGG
RNA 2: GGGAAUGGAUCCACAUCUACGAAUUCGGCCCAUAGAGAGGUUAUCCGCUCAAACAGAUCGGAAGAGCACACGU
B19: target 1 MT 5'PFS AGG 3'PFS AGA (mixed)
RNA 1: CACCCGUGCAAAAAUGCAGGGGUCUAAAACUGAGCGGAUAACCUCUCUAUGG
RNA 2: GGGAAUGGAUCCACAUCUACGAAUUCAGGCCAUAGAGAGGUUAUCCGCUCAAGAAGAUCGGAAGAGCACACGU
B20: target 1 insU 3' of 22,insC 3' of 22 (mixed)
RNA 1: CACCCGUGCAAAAAUGCAGGGGUCUAAAACUGAGCGGAUAACCUCUCUAUGG
RNA 2: GGGAAUGGAUCCACAUCUACGAAUUCGUACUCCAUAGAGAGGUUAUCCGCUCACCGAGAUCGGAAGAGCACACGU
B21: target 1 MT 5'PFS CUU 3'PFS CUG (mixed)
RNA 1: CACCCGUGCAAAAAUGCAGGGGUCUAAAACUGAGCGGAUAACCUCUCUAUGG
RNA 2: GGGAAUGGAUCCACAUCUACGAAUUCCUUCCAUAGAGAGGUUAUCCGCUCACUGAGAUCGGAAGAGCACACGU
B22: target 1 MT 5'PFS GGU 3'PFS CUA (mixed)
RNA 1: CACCCGUGCAAAAAUGCAGGGGUCUAAAACUGAGCGGAUAACCUCUCUAUGG
RNA 2: GGGAAUGGAUCCACAUCUACGAAUUCGGUCCAUAGAGAGGUUAUCCGCUCACUAAGAUCGGAAGAGCACACGU
B23: target 1 MT 5'PFS UGU 3'PFS AUA (mixed)
RNA 1: CACCCGUGCAAAAAUGCAGGGGUCUAAAACUGAGCGGAUAACCUCUCUAUGG
RNA 2: GGGAAUGGAUCCACAUCUACGAAUUCUGUCCAUAGAGAGGUUAUCCGCUCAAUAAGAUCGGAAGAGCACACGU
B24: target 1 MT 5'PFS ACA 3'PFS UUA (mixed)
RNA 1: CACCCGUGCAAAAAUGCAGGGGUCUAAAACUGAGCGGAUAACCUCUCUAUGG
RNA 2: GGGAAUGGAUCCACAUCUACGAAUUCACACCAUAGAGAGGUUAUCCGCUCAUUAAGAUCGGAAGAGCACACGU
B25: target 1 MT 5'PFS AGG 3'PFS AGC (mixed)
RNA 1: CACCCGUGCAAAAAUGCAGGGGUCUAAAACUGAGCGGAUAACCUCUCUAUGG
RNA 2: GGGAAUGGAUCCACAUCUACGAAUUCAGGCCAUAGAGAGGUUAUCCGCUCAAGCAGAUCGGAAGAGCACACGU
B26: target 1 MT 5'PFS GCA 3'PFS UGA (mixed)
RNA 1: CACCCGUGCAAAAAUGCAGGGGUCUAAAACUGAGCGGAUAACCUCUCUAUGG
RNA 2: GGGAAUGGAUCCACAUCUACGAAUUCGCACCAUAGAGAGGUUAUCCGCUCAUGAAGAUCGGAAGAGCACACGU
B27: target 1 U10A,U11G (mixed)
RNA 1: CACCCGUGCAAAAAUGCAGGGGUCUAAAACUGAGCGGAUAACCUCUCUAUGG
RNA 2: GGGAAUGGAUCCACAUCUACGAAUUCGUACCAUAGAGAGGGAAUCCGCUCACCGAGAUCGGAAGAGCACACGU

Among the data in PMC10786891, “Massively parallel profiling of RNA-targeting CRISPR-Cas13d” are Kd values, retold here.

The data set addresses T1, EsCas13d, nuclease-dead (Eubacterium siraeum, UniProt B0MS50, R295A;H300A;R849A;H854A).
T1 sequence: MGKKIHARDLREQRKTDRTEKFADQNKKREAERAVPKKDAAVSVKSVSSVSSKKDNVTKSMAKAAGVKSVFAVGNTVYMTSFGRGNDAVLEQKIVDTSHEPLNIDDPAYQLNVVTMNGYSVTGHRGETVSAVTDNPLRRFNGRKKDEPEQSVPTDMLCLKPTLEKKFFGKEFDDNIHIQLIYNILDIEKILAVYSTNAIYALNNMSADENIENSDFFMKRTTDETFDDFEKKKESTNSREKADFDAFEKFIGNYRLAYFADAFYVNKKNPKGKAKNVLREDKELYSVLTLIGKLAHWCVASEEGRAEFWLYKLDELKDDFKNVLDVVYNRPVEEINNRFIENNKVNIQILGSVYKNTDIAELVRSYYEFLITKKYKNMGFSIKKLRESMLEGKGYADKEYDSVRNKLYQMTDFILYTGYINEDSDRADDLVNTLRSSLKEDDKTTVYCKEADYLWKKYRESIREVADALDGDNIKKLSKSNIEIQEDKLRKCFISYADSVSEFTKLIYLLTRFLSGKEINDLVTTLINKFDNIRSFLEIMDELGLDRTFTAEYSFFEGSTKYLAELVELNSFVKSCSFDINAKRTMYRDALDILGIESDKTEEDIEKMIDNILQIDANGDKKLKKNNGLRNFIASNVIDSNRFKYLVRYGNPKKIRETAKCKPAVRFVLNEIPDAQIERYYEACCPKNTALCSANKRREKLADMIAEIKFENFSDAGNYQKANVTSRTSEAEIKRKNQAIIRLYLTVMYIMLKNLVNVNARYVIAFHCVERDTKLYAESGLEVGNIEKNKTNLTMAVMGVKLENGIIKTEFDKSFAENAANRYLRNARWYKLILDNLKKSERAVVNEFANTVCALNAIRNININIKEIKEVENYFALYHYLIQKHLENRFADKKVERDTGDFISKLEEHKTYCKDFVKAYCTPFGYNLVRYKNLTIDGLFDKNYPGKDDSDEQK
The data set is described as follows: crRNA (strand 1, pre-loaded); Mg2+; 40 mM Tris-HCl pH 7.5, 150 mM NaCl, 6 mM MgCl2, 1 mM DTT, 0.1% Tween-20, 0.2 mg/ml BSA; 25 C; 10 min per concentration, then washed. The note with it: tags: His6-TwinStrep-SUMO cleaved; N-terminal SNAP kept (SNAP-Surface 488); label: 3' end held by stalled T7 RNA polymerase.
As a reminder, the Kd is the constant that tells how readily two partners part at equilibrium. In the case of B1, binding was characterised by a dissociation constant (Kd) of 41 ± 12.5 nM. For B2, the affinity, expressed as Kd, was 5.68 ± 0.46 nM.

B3 had a Kd of 12.7 ± 4.2 nM. For B4, the affinity, expressed as Kd, was 23.4 ± 1.1 nM.

Molecule B5 gave a Kd of around 15 nM. In turn, B6 yielded a Kd of 11.2 ± 0.65 nM. B7: the Kd was 52 ± 14 nM. B8 registered an equilibrium dissociation constant (Kd) of 29.5 ± 12.5 nM. In turn, B9 came in with a Kd of 21 ± 6 nM. For the molecule B10, the Kd turned out to be 15.8 ± 2.95 nM. B11 registered a Kd of 21.1 ± 5.75 nM.

On to B12, for which the Kd turned out to be 45 ± 15 nM.

With B13, the dissociation constant (Kd) came out at 49 ± 17 nM. B14 registered a Kd of 58.5 ± 7.5 nM. For the molecule B15, the Kd amounted to 35.5 ± 10.5 nM. For the molecule B16, the Kd was around 110 nM. B17 showed a dissociation constant (Kd) of 5.35 ± 1.15 nM. B18 had a Kd of 39 ± 13.5 nM. With B19 the figure was 37.5 ± 8.5 nM; with B20, 31.6 ± 1.2 nM; with B21, 41 ± 19 nM. Take B22: binding was characterised by a dissociation constant (Kd) of 64.5 ± 27.5 nM. With B23, the Kd worked out at 62.5 ± 23 nM.

For B24, the Kd was determined as 8.85 ± 2.9 nM. Molecule B25 gave a dissociation constant Kd of around 52 nM. B26: binding was characterised by a dissociation constant (Kd) of 16.4 ± 2.25 nM.

B27 gave a Kd of 11.6 ± 0.5 nM.
